{"source": "patent US20230212554A1", "key": {"[1]": {"target": "NP of B/Brisbane/60/2008(fluB) (influenza B virus B/Brisbane/60/2008)", "test": "ELISA on virus-infected fixed MDCK cells"}, "[2]": {"target": "NPB1 (influenza B virus B/Houston/B720/2004) (UniProt O36433)", "test": "ELISA on recombinant NP"}}, "data": [{"substance": "ab47876 (antibody)", "values": [{"measurement": "EC50", "setting": "[1]", "value": 2.06, "unit": "nM"}, {"measurement": "EC50", "setting": "[2]", "value": 0.13, "unit": "nM"}]}]}
